Experimental findings from patent publication US20260070975A1 (SANTA ANA BIO, published 2026) are described below.

T1: siglec 5 expressed on HEK293 cells (UniProt O15389 17-551, limits assumed)
T1 construct: whole, on cells; also called Siglec-6 family member
T1 sequence (looked up): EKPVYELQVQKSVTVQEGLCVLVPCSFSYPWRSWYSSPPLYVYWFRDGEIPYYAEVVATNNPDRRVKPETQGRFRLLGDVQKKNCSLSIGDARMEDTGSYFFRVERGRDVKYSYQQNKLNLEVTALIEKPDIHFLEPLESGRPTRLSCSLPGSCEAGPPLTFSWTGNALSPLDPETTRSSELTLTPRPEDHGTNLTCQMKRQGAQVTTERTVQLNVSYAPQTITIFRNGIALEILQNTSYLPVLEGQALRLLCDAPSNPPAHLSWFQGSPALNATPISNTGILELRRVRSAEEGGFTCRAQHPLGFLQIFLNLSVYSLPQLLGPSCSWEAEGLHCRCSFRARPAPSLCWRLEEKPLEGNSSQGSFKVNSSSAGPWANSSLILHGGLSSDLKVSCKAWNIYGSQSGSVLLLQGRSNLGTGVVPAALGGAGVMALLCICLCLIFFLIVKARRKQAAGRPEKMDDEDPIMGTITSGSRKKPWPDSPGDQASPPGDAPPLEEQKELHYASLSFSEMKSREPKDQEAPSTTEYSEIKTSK

T2: siglec 15 expressed on HEK293 cells (UniProt Q6ZMC9 20-328, limits assumed)
T2 construct: whole, on cells; also called Siglec-6 family member
T2 sequence (looked up): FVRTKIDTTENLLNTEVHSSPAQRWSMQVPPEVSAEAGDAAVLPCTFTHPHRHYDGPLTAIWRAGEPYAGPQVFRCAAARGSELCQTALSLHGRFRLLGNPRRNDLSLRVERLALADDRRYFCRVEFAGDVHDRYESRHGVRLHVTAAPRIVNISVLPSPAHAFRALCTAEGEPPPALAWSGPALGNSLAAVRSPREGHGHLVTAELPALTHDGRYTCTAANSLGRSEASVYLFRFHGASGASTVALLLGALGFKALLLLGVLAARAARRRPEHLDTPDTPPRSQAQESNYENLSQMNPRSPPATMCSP

T3: siglec 11 expressed on HEK293 cells (UniProt Q96RL6 28-698, limits assumed)
T3 construct: whole, on cells; also called Siglec-6 family member
T3 sequence (looked up): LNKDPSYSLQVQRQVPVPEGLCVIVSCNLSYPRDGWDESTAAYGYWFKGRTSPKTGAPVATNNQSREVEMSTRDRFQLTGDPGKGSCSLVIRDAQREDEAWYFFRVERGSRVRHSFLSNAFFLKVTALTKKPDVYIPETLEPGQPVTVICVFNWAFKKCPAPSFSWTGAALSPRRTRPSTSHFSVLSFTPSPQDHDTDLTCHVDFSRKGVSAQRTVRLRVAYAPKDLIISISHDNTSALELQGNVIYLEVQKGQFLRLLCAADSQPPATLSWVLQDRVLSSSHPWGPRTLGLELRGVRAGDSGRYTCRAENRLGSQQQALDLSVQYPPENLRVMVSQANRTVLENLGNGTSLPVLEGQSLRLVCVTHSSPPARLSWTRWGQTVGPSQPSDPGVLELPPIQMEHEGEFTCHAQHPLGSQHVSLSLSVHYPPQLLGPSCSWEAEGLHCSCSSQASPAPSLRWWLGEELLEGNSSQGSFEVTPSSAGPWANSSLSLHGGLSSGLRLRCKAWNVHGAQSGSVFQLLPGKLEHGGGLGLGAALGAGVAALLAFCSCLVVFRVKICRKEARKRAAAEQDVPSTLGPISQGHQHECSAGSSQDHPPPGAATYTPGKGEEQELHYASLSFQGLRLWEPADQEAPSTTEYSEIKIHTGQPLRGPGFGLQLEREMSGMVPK

B1: hRND-2 (antibody, human IgG1, kappa, V domains shown)
VH: QVQLVQSGAEVKKPGASVKVSCKASGYAFTSYWMHWVRQAPGQRLEWMGEIYPTNGGTTYAQKFQGRVTMTVDKSTSTAYMELSRLRSDDTAVYYCTIEDFYAMDYWGQGTTVTVSS
VL: DIVMTQTPLSLSVTPGQPASISCKSSQSLLDSDGKTSLNWLLQKPGQSPQRLIYLVSKLDSGVPDRFSGSGSGTDFTLKISRVEAEDVGVYYCWQGTHFPYTFGQGTKLEIKR
notes: also called humanized RND-2; hRND-H2 / hRND-L3; copies: 2 + 2
B2: hRND-4 (antibody, human IgG1, kappa, V domains shown)
VH: B1 VH with A61N, Q62E, Q65K, G66R
VL: B1 VL
notes: also called humanized RND-4; hRND-H2b / hRND-L3; copies: 2 + 2
B3: hRND-5 (antibody, human IgG1, kappa, V domains shown)
VH: B1 VH with V20L, M48I, A61N, Q62E, Q65K, G66R, V68A, M70L
VL: B1 VL
notes: also called humanized RND-5; hRND-H3b / hRND-L3; copies: 2 + 2
B4: hRND-3 (antibody, human IgG1, kappa, V domains shown)
VH: B1 VH with V20L, M48I, V68A, M70L
VL: B1 VL
notes: also called humanized RND-3; hRND-H3 / hRND-L3; copies: 2 + 2

Where a chain is given by its changes, count along the chain named.

T8 sequence (O43699 27-453): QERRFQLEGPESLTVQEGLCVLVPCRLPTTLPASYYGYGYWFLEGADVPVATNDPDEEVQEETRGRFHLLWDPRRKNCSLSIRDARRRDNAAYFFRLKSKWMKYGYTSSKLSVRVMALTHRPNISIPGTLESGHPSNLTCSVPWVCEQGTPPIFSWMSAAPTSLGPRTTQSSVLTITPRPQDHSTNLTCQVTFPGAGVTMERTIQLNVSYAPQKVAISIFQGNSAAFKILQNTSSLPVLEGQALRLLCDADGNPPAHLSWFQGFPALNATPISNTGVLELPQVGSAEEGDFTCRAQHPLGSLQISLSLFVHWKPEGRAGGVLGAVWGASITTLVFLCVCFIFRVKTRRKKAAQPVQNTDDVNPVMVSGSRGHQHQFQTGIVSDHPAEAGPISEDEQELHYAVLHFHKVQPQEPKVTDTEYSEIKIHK
T4 sequence (O43699 27-347 limits assumed): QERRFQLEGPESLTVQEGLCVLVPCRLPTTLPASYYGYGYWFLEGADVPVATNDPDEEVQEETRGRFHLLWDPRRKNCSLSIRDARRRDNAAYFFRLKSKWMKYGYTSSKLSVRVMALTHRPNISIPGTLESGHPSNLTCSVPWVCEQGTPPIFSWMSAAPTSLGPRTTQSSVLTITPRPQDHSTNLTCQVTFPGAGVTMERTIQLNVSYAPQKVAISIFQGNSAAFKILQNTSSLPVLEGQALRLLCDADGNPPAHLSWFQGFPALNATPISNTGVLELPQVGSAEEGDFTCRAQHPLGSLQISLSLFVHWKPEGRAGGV
T6 sequence (Q9Y286 19-467 limits assumed): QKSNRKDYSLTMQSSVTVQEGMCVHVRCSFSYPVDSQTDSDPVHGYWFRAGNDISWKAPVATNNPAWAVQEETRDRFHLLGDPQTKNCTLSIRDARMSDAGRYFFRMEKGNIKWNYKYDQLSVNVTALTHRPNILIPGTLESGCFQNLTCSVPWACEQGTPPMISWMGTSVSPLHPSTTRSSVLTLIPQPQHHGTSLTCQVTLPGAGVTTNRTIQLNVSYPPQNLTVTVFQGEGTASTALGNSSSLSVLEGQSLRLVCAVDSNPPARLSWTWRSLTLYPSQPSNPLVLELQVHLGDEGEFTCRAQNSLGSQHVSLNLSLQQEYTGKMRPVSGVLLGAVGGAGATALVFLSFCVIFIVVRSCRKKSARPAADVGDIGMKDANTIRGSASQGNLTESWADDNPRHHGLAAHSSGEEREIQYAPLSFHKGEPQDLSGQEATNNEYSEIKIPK

One experiment concerns the target T4, Human siglec-6 (BLI analyte) (human, UniProt O43699 27-347, limits assumed).
T4 construct: also called human siglect-6
Briefly: BLI (Octet), antibody on capture sensor. The protocol:
Further, binding affinities of siglec-6 antibodies to human siglec-6 were measured by […] using an Octect instrument. Briefly, capture sensors were loaded with test antibodies with 3-fold dilutions. The association and dissociation rates to were determined and used to calculate the equilibrium dissociation constant KD (Table 6).
(Biolayer interferometry detects binding as a change in optical thickness at a sensor tip.)
The Kd is the constant that tells how readily two partners part at equilibrium. B1: binding was put at a Kd of 0.17 nM.
Molecule B2 displayed a Kd of 0.315 nM.
The same measure, in the same setting: then B3, with 0.166 nM.
Same read-out and setting: the value for B4 was 0.137 nM.

A further experiment deals with T1, siglec 5 expressed on HEK293 cells. In words: flow cytometry on HEK293 cells expressing the target. The protocol: (§1) Cultured HEK293 cells expressing human siglec-6, cynomolgus siglec-6, or siglec 6 family members were resuspended in FACS Blocking Buffer (PBS+10% normal human serum) for 30 minutes. Following washing, cells were incubated with siglec-6 antibodies in FACS Buffer (PBS+0.5% bovine serum albumin+0.09% sodium azide) and incubated at 4° C. for 30 minutes, washed and incubated with PE-labeled anti-human secondary antibody. Cells were incubated at 4° C. for 30 minutes in the dark. Following washing, cytofluorimetric analysis was conducted using a BD FACS Symphony A3 (BD Biosciences). Cells were sorted by scatter properties and separated for single cell analysis using side scatter width vs side scatter area. Antibody binding to cells was quantitated by measuring fluorescent emissions of excitation wavelength of 561 nm using a 586/15 nm filter. Data analysis was performed using FlowJo Software.
For orientation: A flow cytometer gives signals particle by particle.
For B1, the binding result is “no binding”.
For the molecule B2, the binding result was “no binding”.
On the same count and under the same terms, the value for B3 was “no binding”.
The same measure, in the same setting: then B4, with “no binding”.

The target in another experiment is T5, siglec 8 expressed on HEK293 cells (UniProt Q9NYZ4 17-499, limits assumed).
T5 construct: whole, on cells; also called Siglec-6 family member
T5 sequence (Q9NYZ4 17-499 limits assumed): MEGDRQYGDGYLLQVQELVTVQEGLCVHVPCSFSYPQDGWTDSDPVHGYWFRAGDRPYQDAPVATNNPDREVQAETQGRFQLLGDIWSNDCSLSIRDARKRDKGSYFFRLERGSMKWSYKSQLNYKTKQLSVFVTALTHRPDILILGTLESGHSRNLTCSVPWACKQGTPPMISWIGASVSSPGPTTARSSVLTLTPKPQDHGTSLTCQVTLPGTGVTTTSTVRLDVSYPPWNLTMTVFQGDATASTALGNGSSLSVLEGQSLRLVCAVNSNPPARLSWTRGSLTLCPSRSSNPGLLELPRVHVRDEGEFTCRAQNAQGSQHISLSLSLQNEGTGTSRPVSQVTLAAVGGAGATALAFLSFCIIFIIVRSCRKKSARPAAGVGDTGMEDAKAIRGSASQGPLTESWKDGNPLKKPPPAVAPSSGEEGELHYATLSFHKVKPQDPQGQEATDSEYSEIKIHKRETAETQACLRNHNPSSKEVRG
Described as above. As to the method: as §1
B1: the binding result was “no binding”.
As to B2, the binding result is reported as “no binding”.
Regarding B3, the binding result is recorded as “no binding”.
On to B4, for which the binding result is recorded as “no binding”.

A further experiment concerns the target T6, siglec 7 expressed on HEK293 cells (UniProt Q9Y286 19-467, limits assumed).
T6 construct: whole, on cells; also called Siglec-6 family member
Described as above. As to the method: as §1
Turning to B1, the binding result was “no binding”.
For B2, the binding result is on record as “no binding”.
For B3, the binding result is on record as “no binding”.
The same measure, in the same setting: then B4, with “no binding”.

For a further experiment, the target named is T7, siglec 3 expressed on HEK293 cells (UniProt P20138 18-364, limits assumed).
T7 construct: whole, on cells; also called Siglec-6 family member
T7 sequence (P20138 18-364 limits assumed): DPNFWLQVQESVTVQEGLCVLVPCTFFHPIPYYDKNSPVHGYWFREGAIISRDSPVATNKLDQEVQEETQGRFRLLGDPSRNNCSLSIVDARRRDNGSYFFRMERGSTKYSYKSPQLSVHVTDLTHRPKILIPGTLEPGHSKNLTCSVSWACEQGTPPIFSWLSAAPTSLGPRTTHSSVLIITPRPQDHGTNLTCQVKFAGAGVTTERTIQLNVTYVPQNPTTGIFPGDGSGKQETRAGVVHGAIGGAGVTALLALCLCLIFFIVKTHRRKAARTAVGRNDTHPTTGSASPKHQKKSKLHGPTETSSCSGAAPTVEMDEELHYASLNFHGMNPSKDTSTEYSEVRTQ
The description is as above. As to the method: as §1
Take B1: the binding result was “no binding”.
Regarding B2, the binding result is listed as “no binding”.
Take B3: the binding result is recorded as “no binding”.
Still for that read-out and setting: the value for B4 was “no binding”.

The next experiment deals with T2, siglec 15 expressed on HEK293 cells. The description is as above. The protocol:
as §1
On to B1, for which the binding result is on record as “no binding”.
As to B2, the binding result was “no binding”.
For the molecule B3, the binding result is on record as “no binding”.
Turning to B4, the binding result is reported as “no binding”.

Another experiment addresses T3, siglec 11 expressed on HEK293 cells. The description is as above. The protocol:
as §1
In the case of B1, the binding result was “no binding”.
On the same count and under the same terms, the value for B2 was “no binding”; that for B3 was “no binding”; that for B4 was “no binding”.

A further experiment addresses T8, Human siglec-6 expressed on the cell surface (HMC1.2 cells; HEK293 cells expressing human siglec-6) (human, UniProt O43699 27-453).
T8 construct: whole, on cells; also called cell surface expressed siglec-6; CD327
Briefly: flow cytometry on HMC1.2 cells. The protocol: as §1, with “Target binding of siglec-6 antibodies to siglec-6-expressing cells was assessed by flow cytometry. Cultured” for “Cultured”, “HMC1.2” for “HEK293”, “cells” for “cells expressing human siglec-6, cynomolgus siglec-6, or siglec 6 family members”, “anti-human or anti-mouse” for “anti-human”, “antibodies.” for “antibody.”, “All tested siglec-6 antibodies were capable of binding to cells expressing siglec-6.” for “Data analysis was performed using FlowJo Software.”
As to B1, the MFI is 3130 MFI and the “Percent Positive for Siglec-6 on HMC1.2 cells” value (“Percent Positive” below) stood at 99.9%.
In the case of B2, the MFI amounted to 3200 MFI and the “Percent Positive” value came out at 100%.
On to B3, for which the MFI was 1940 MFI and the “Percent Positive” value amounted to 99.9%.
For the molecule B4, the MFI amounted to 3700 MFI and the “Percent Positive” value came to 99.9%.
